Numbered stars: 1 amine (or outer) side, 2 acyl side, 3 side chain; on linkers, the order of the positions; unused ones are H or OH. Square brackets hold non-standard residues; d marks the D form. Ends that are not written are not given here. * marks the point of attachment. Pro(trans-4-NH2) = O=C([C@@H]1C[C@@H](N[*:3])CN1[*:1])[*:2]; 1381 = (S)-3,3-dimethylbutan-2-amine, C[C@H](N*)C(C)(C)C; Sni = (S)-nipecotic acid, O=C([C@H]1CCCN([*:1])C1)[*:2]; 5121 = 1-propyl-butyl-amine, CCCC(CCC)N*; dGly(2-thienyl) = N[C@@H](C(=O)O)c1cccs1; Gly(2-thienyl) = N[C@H](C(=O)O)c1cccs1; Butanoyl(4-cHex) = O=C(CCCC1CCCCC1)*; NMeR = CN[C@@H](CCCNC(=N)N)C(=O)O; dDap(Me2) = CN(C)C[C@@H](N)C(=O)O; Hyp = O=C(O)[C@@H]1C[C@@H](O)CN1; NMeF = CN[C@@H](Cc1ccccc1)C(=O)O; NMeI = CC[C@H](C)[C@H](NC)C(=O)O; tBuAla = CC(C)(C)C[C@H](N)C(=O)O; NMeD = CN[C@@H](CC(=O)O)C(=O)O; NMeL = CN[C@@H](CC(C)C)C(=O)O; BB725 = not defined here; Octanoyl = CCCCCCCC(=O)*; 1860 = not defined here; 1906 = not defined here; Api = NC1(C(=O)O)CCNCC1; Che = not defined here; Occ = octanoic acid
T1: natriuretic peptide receptor-B (human)
T1 chain: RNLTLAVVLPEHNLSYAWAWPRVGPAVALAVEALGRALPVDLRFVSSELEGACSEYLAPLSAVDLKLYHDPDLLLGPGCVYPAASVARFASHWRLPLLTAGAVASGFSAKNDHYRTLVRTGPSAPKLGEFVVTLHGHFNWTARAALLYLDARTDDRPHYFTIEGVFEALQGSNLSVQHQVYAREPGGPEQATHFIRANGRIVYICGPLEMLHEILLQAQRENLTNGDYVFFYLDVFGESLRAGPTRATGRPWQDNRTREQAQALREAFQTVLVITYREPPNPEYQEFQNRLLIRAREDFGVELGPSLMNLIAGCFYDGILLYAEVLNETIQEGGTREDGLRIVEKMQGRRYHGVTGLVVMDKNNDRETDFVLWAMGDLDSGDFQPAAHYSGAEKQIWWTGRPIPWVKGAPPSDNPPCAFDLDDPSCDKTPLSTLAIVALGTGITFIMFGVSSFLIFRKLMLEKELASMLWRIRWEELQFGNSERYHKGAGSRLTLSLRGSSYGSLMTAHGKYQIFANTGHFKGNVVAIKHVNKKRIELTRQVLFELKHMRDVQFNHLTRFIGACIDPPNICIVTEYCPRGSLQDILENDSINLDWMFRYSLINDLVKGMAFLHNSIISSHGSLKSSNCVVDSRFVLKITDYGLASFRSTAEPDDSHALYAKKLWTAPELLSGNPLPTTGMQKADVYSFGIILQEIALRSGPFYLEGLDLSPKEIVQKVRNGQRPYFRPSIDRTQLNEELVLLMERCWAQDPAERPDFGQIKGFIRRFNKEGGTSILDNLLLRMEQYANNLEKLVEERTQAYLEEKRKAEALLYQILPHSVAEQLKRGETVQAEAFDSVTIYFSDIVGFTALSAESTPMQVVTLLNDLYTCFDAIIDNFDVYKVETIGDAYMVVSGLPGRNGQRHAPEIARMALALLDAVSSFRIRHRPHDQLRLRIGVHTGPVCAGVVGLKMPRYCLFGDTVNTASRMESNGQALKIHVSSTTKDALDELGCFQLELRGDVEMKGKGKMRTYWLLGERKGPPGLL

B1: JAL-1509_02 (peptide)
peptide: [Occ][Sni]FLL[Hyp][NMeL]DP[1381]
modifications: not fully specified (residue 4); printed as Occ-Sni-Phe-leu-Leu-Hyp-Nml-Asp-Pro-1381
B2: JAL-1574 (peptide)
peptide: [Occ]XFXLXXDRI-NH2
modifications: not fully specified (residues 2, 4, 6, 7); printed as Occ-Sni-Phe-nml-Leu-Hyp-Nml-Asp-Arg-Ile-NH2
B3: JAL-1594 (peptide)
peptide: Octanoyl-[Sni]FLL[Hyp][NMeL]VP[Che]
modifications: not fully specified (some residues); printed as Occ-Sni-Phe-leu-Leu-Hyp-Nml-Val-Pro-Che; reading uncertain
B4: JAL-1595 (peptide)
peptide: Octanoyl-[Sni]FLL[Hyp][tBuAla]DP[Che]
modifications: not fully specified (some residues); printed as Occ-Sni-Phe-leu-Leu-Hyp-Npg-Asp-Pro-Che; reading uncertain
B5: JAL-1509 (peptide)
peptide: [Occ][Sni]FLL[Hyp][NMeL]DP[1381]
modifications: not fully specified (residue 4); printed as Occ-Sni-Phe-leu-Leu-Hyp-Nml-Asp-Pro-1381
B6: JAL-1510 (peptide)
peptide: [Occ][Sni]FLL[Hyp][NMeL]DP[1860]
modifications: not fully specified (residue 4); printed as Occ-Sni-Phe-leu-Leu-Hyp-Nml-Asp-Pro-1860; reading uncertain
B7: JAL-1512_02 (peptide)
peptide: [Occ][Sni]FLL[Hyp][NMeL]DP[Che]
modifications: not fully specified (residue 4); printed as Occ-Sni-Phe-leu-Leu-Hyp-Nml-Asp-Pro-Che; reading uncertain
B8: JAL-1556 (peptide)
peptide: [Occ][dA]F[dL]L[Hyp][NMeL][BB725]RI-NH2
modifications: reading uncertain; also: printed as Occ-ala-Phe-leu-Leu-Hyp-Nml-(BB725)-Arg-Ile-NH2
B9: JAL-1511 (peptide)
peptide: [Occ][Sni]FLL[Hyp][NMeL]DP[1906]
modifications: not fully specified (residue 4); printed as Occ-Sni-Phe-leu-Leu-Hyp-Nml-Asp-Pro-1906; reading uncertain
B10: JAL-1513 (peptide)
peptide: [Occ][Sni]FLL[Hyp][NMeL]DP[5121]
modifications: not fully specified (residue 4); printed as Occ-Sni-Phe-leu-Leu-Hyp-Nml-Asp-Pro-5121

Molecular target: T1, natriuretic peptide receptor-B
Experiment: cell-based or functional assay

| Binder | EC50 group, cGMP in GTM-3 cells [µM] |
| --- | --- |
| B1 | ≤ 5 |
| [Occ][Sni]F[Api]L[Hyp][NMeL]DRI-NH2 [JAL-1555] | ≤ 1 |
| Octanoyl-[dP]FGLKLDRI-NH2 [JAL-0694] | ≤ 15 |
| B2 | ≤ 15 |
| [Occ][Sni]F[dDap(Me2)]L[Hyp][NMeL]D[NMeR]I-NH2 [JAL-1576] | ≤ 1 |
| [Occ][dA]F[dL]L[Hyp][NMeL][Gly(2-thienyl)]RI-NH2 [JAL-1557] | ≤ 15 |
| [Occ][dA]F[dL]L[Hyp][NMeL][dGly(2-thienyl)]RI-NH2 [JAL-1558] | ≤ 1 |
| [Occ][Sni]FAL[Hyp][NMeL]DRI-NH2 [JAL-1553] | ≤ 15 |
| [Occ][Sni]F[dL]L[Pro(trans-4-NH2)][NMeL]DPI-NH2 [JAL-1559] | ≤ 1 |
| [Occ][Sni]F[dDap(Me2)][NMeL][Hyp][NMeL]DRI-NH2 [JAL-1578] | ≤ 5 |
| [Occ][Sni][NMeF][dL]L[Hyp][NMeL]DRI-NH2 [JAL-1573] | ≤ 1 |
| {Butanoyl(4-cHex)}-[dA][dA]FGLKLDRI-NH2 [JAL-0693] | ≤ 15 |
| [Occ][Sni]F[dDap(Me2)]L[Hyp][NMeL]DR[NMeI]-NH2 [JAL-1575] | ≤ 15 |
| B3 | ≤ 5 |
| B4 | ≤ 1 |
| [Occ][Sni]F[dL][NMeL][Hyp][NMeL]DRI-NH2 [JAL-1572] | ≤ 15 |

| Binder | EC50 group, cGMP in GTM-3 cells [µM] |
| --- | --- |
| B5 | ≤ 5 |
| B6 | ≤ 1 |
| [Occ][Sni]F[dL]L[Pro(trans-4-NH2)][NMeL]DP[Che] (reading uncertain; also: printed as Occ-Sni-Phe-leu-Leu-Tap-Nml-Asp-Pro-Che) [JAL-1568] | ≤ 1 |
| [Occ][Sni]F[dL]L[Hyp][NMeL]DR[NMeI]-NH2 [JAL-1569] | ≤ 1 |
| [Occ][Sni]F[dL]L[Hyp][NMeL]D[NMeR]I-NH2 [JAL-1570] | ≤ 5 |
| B7 | ≤ 1 |
| B8 | ≤ 1 |
| {Butanoyl(4-cHex)}-[dP]FGLKLDRI-NH2 [JAL-0695] | ≤ 15 |
| [Occ][Sni]FLL[Hyp][NMeL]DRI-NH2 [JAL-1554] | ≤ 5 |
| [Occ][Sni]F[Api]L[Pro(trans-4-NH2)][NMeL]DPI-NH2 [JAL-1561] | ≤ 1 |
| [Occ][Sni][NMeF][dDap(Me2)]L[Hyp][NMeL]DRI-NH2 [JAL-1579] | ≤ 1 |
| [Occ][Sni]F[dDap(Me2)]L[Hyp][NMeL][NMeD]RI-NH2 [JAL-1577] | ≤ 15 |
| [Occ][Sni]F[dDap(Me2)]L[Hyp][NMeL]DPI-NH2 [JAL-1580] | ≤ 1 |
| B9 | ≤ 5 |
| [Occ][Sni]FGL[Pro(trans-4-NH2)][NMeL]DPI-NH2 [JAL-1560] | ≤ 5 |
| B10 | ≤ 15 |

From patent US9187525B2, “Methods of treating ophthalmic diseases using NPR-B agonists” (Shire Orphan Therapies GmbH, dated 2015)
